Where two headings read alike, the source gives them in different places.
B1: anti-SARS-CoV-2 antibody clone R3-1a-1 (antibody, V domains shown)
VH: QVQLVQSGAEVKKPGSSVKVSCKASGGTFSSYAISWVRQAPGQGLEWMGGIIPILGIANYAQKFQGRVTITADKSTSTAYMELSSLRSEDTAVYYCARDGGGSSGYHDYWGQGTLVTVSS
VL: NFMLTQPHSVSESPGKTVTISCTRSSGSIASKYVQWYQQRPGNSPTTVIYEDDQRPSGVPDRFSASIDSSANTASLTISGLKPEDEADYYCQSYDDNTAVFGGGTHLTVLG
B2: anti-SARS-CoV-2 antibody clone R4-11 (antibody, V domains shown)
VH: QVQLVQSGAEVKKPGSSVKVSCKASGGAFSSYAISWVRQAPGQGLEWMGRIIPILGIANYAQKFQGRVTITADKSTSTAYMELSSLRSEDTAVYYCAGGSGYYYWGQGTTVTVSS
VL: QSVLTQPPSVSEAPGQRVTISCSGSSSNIANNAVNWYQQLPGQAPKLLIFYDDLLPSWVSDRFSGSKSGTSASLAISGLQSEDEADYYCAAWDDSLNGPVFGGGTKLTVLR
B3: Imdevimab (antibody, V domains shown)
VH: QVQLVESGGGVVQPGRSLRLSCAASGFTFSNYAMYWVRQAPGKGLEWVAVISYDGSNKYYADSVKGRFTISRDNSKNTLYLQMNSLRTEDTAVYYCASGSDYGDYLLVYWGQGTLVTVSS
VL: QSALTQPASVSGSPGQSITISCTGTSSDVGGYNYVSWYQQHPGKAPKLMIYDVSKRPSGVSNRFSGSKSGNTASLTISGLQSEDEADYYCNSLTSISTWVFGGGTKLTVLG
B4: anti-SARS-CoV-2 antibody clone R4-1a-10 (antibody, V domains shown)
VH: QVQLQQWGAGLLKPSETLSLTCAVYGGSFSGNYWSWIRQPPGKGLEWIGEINHSGSTNYNPSLKSRVTISVDTSKNQFSLKLSSVTAADTAVYYCARGLLDYWGQGTLVTVSS
VL: QSVLTQPSSVSAAPWQRVTISCSGSDSNIGNNPVNWYQHVPGKAPTLLIYYDNFLASKISDRFSGSKSGTSASLAISGLQSDDEADYYCASWDDSLNGVVFGGGTKLTVLR

Assays:
[1] = target: T1, SARS-CoV-2 B.1.1.529 Spike Protein (Omicron) (SARS-CoV-2, UniProt P0DTC2 16-1211); assay: direct ELISA on coated spike, single dose (axis label 30nm)
[2] = target: Recombinant SARS-CoV-2 BA.2 Spike (GCN4-IZ) His Protein, CF (R&D, 11109-CV) (SARS-CoV-2, UniProt P0DTC2 16-1211); assay: BLI (ForteBio), mAb on AHC sensor, spike in solution
[3] = target: SARS-CoV-2 Spike Trimer, His Tag (BA.4/Omicron) (MALS verified) (AcroBiosystems, SPN-C5229) (SARS-CoV-2, UniProt P0DTC2 16-1213); assay: as above
[4] = target: SARS-CoV-2 Spike Trimer, His Tag (BA.5/Omicron) (MALS verified) (AcroBiosystems, SPN-C522e) (SARS-CoV-2, UniProt P0DTC2 16-1213); assay: as above
[5] = target: T2, SARS-CoV-2 B.1.617.2 Spike Protein (R&D, Cat. #10878-CV) (SARS-CoV-2, UniProt P0DTC2 16-1211); assay: direct ELISA on coated spike
[6] = target: T3, SARS-CoV-2 AY.1 Spike Protein (R&D, Cat. #10922-CV) (SARS-CoV-2, UniProt P0DTC2 16-1211); assay: competition ELISA: blocks biotin-ACE2 binding to coated spike
[7] = target: T1, SARS-CoV-2 B.1.1.529 Spike Protein …
[8] = target: T4, SARS-CoV-2 C.37 Spike His Protein (R&D, Cat. #10887-CV) (SARS-CoV-2, UniProt P0DTC2 16-1211); assay: competition ELISA: blocks biotin-ACE2 binding to coated spike
[9] = target: T3, SARS-CoV-2 AY.1 Spike Protein (R&D, …); assay: direct ELISA on coated spike
[10] = target: T4, SARS-CoV-2 C.37 Spike His Protein (R&D, …); assay: direct ELISA on coated spike
[11] = target: T5, SARS-CoV-2 Spike Protein, wild type (R&D, Cat. #10549-CV) (SARS-CoV-2, UniProt P0DTC2 16-1211); assay: competition ELISA: blocks biotin-ACE2 binding to coated spike
[12] = target: T2, SARS-CoV-2 B.1.617.2 Spike Protein …; assay: as above
[13] = target: T1, SARS-CoV-2 B.1.1.529 Spike Protein …; remark: listed apart in the source
[14] = target: T5, SARS-CoV-2 Spike Protein, wild type …; assay: direct ELISA on coated spike
[15] = target: T1, SARS-CoV-2 B.1.1.529 Spike Protein …; assay: BLI (ForteBio), mAb on AHC sensor, spike in solution
[16] = target: T2, SARS-CoV-2 B.1.617.2 Spike Protein …; assay: as above
[17] = target: T3, SARS-CoV-2 AY.1 Spike Protein (R&D, …); assay: as above
[18] = target: T4, SARS-CoV-2 C.37 Spike His Protein (R&D, …); assay: as above
[19] = target: T5, SARS-CoV-2 Spike Protein, wild type …; assay: as above
[20] = target: T6, SARS-CoV-2 AY.1 Spike Protein (R&D, Cat. #10922-CV) (SARS-CoV-2, UniProt P0DTC2 16-1211); assay: competition ELISA: blocks biotin-ACE2 binding to coated spike; remark: listed apart in the source
[21] = target: T7, SARS-CoV-2 C.37 Spike His Protein (R&D, Cat. #10887-CV) (SARS-CoV-2, UniProt P0DTC2 16-1211); assay: as above; remark: listed apart in the source
[22] = target: T6, SARS-CoV-2 AY.1 Spike Protein (R&D, …); assay: direct ELISA on coated spike; remark: listed apart in the source
[23] = target: T7, SARS-CoV-2 C.37 Spike His Protein (R&D, …); assay: direct ELISA on coated spike; remark: listed apart in the source
[24] = target: T8, SARS-CoV-2 Spike Protein, wild type (R&D, Cat. #10549-CV) (SARS-CoV-2, UniProt P0DTC2 16-1211); assay: competition ELISA: blocks biotin-ACE2 binding to coated spike; remark: listed apart in the source
[25] = target: T7, SARS-CoV-2 C.37 Spike His Protein (R&D, …); assay: as above; remark: listed apart in the source
[26] = target: T6, SARS-CoV-2 AY.1 Spike Protein (R&D, …); assay: as above; remark: listed apart in the source
[27] = target: T8, SARS-CoV-2 Spike Protein, wild type …; assay: as above; remark: listed apart in the source
[28] = target: T8, SARS-CoV-2 Spike Protein, wild type …; assay: direct ELISA on coated spike; remark: listed apart in the source
[29] = target: T7, SARS-CoV-2 C.37 Spike His Protein (R&D, …); assay: BLI (ForteBio), mAb on AHC sensor, spike in solution; remark: listed apart in the source
[30] = target: T8, SARS-CoV-2 Spike Protein, wild type …; assay: as above; remark: listed apart in the source
[31] = target: T6, SARS-CoV-2 AY.1 Spike Protein (R&D, …); assay: as above; remark: listed apart in the source
[32] = target: T2, SARS-CoV-2 B.1.617.2 Spike Protein …; assay: competition ELISA: blocks biotin-ACE2 binding to coated spike; remark: listed apart in the source
[33] = target: T5, SARS-CoV-2 Spike Protein, wild type …
[34] = target: T1, SARS-CoV-2 B.1.1.529 Spike Protein …; assay: competition ELISA: blocks biotin-ACE2 binding to coated spike
[35] = target: T4, SARS-CoV-2 C.37 Spike His Protein (R&D, …)
[36] = target: T1, SARS-CoV-2 B.1.1.529 Spike Protein …; assay: direct ELISA on coated spike

| Binder | Kd [2] [nM] | Kd [3] [nM] | Kd [4] [nM] | EC50 [5] [nM] | IC50 [6] [nM] | EC50 [9] [nM] | EC50 [10] [nM] | EC50 [14] [nM] | Kd [15] [nM] | Kd [16] [nM] | Kd [17] [nM] | Kd [18] [nM] | Kd [19] [nM] | also measured |
| --- | --- | --- | --- | --- | --- | --- | --- | --- | --- | --- | --- | --- | --- | --- |
| B1 | 4.36 | 10.3 | 12.5 | – | – | – | – | – | – | – | – | – | – | binding result [1]: no binding (tested: 30 nM (printed 30nm)) |
| B2 | – | – | – | 0.0559 | 0.787 | 0.0905 | 0.0677 | 0.0622 | 7.93 | 1.53 | 2.29 | 1.23 | 4.05 | EC50 [7]: 100 nM; IC50 [8]: 1.8 nM; IC50 [11]: 3.99 nM; IC50 [12]: 1.14 nM; IC50 [13]: 24 nM |
| B3 | – | – | – | – | – | – | – | – | – | – | – | – | – | IC50 [20]: 1.18 nM; IC50 [21]: 3.77 nM; EC50 [22]: 0.0642 nM; EC50 [23]: 0.0734 nM; IC50 [24]: 4.85 nM; IC50 [25]: 3.25 nM; IC50 [26]: 0.697 nM; IC50 [27]: 4.82 nM; EC50 [28]: 0.0681 nM; Kd [29]: 0.563 nM; Kd [30]: 2.32 nM; Kd [31]: 0.305 nM |
| B4 | 3.23 | 6.86 | 7.86 | 0.0369 | 0.738 | 0.0407 | 1.99 | 0.479 | 0.571 | 2.34 | 1.79 | 1.01 | 1.87 | IC50 [32]: 2.12 nM; IC50 [33]: 77 nM; IC50 [34]: 1.86 nM; IC50 [35]: 73.8 nM; EC50 [36]: 0.0806 nM |

Reference: patent US20260250363A1 (AP BIOSCIENCES, published 2026)
